The values below come from article PMC5094862 (Journal of the American Chemical Society, 2016).

The series concerns the molecule itself. The series can be described thus: SEC.

B1: synthetic L-GroES (natural protein, E. coli, UniProt P0A6F9 1-97, looked up)
chain: MNIRPLHDRVIVKRKEVETKSAGGIVLTGSAAAKSTRGEVLAVGNGRILENGEVKPLDVKVGDIVIFNDGYGVKSEKIDNEEVLIMSESDILAIVEA
With B1, the binding result is reported as “binds”.

B2: recombinant GroES (natural protein, E. coli, UniProt P0A6F9 1-97, looked up)
chain: MNIRPLHDRVIVKRKEVETKSAGGIVLTGSAAAKSTRGEVLAVGNGRILENGEVKPLDVKVGDIVIFNDGYGVKSEKIDNEEVLIMSESDILAIVEA
Take B2: the binding result is listed as “binds”.
